The Human Domainome abundance scans (Beltran et al. 2025)
± gives the uncertainty stated by the source.

B1: Far upstream element-binding protein 1, residues 184 to 257; numbered along this chain, Q96AE4 (parent)
chain: GNAVQEIMIPASKAGLVIGKGGETIKQLQERAGVKMVMIQDGPQNTGADKPLRITGDPYKVQQAKEMVLELIRD

Variants of: B1
Assay: abundance fitness (aPCA) (normalised: wild type 0, dead -1); higher = more abundant; growth selection in yeast, the domain comes from the species named
Settings: Homo sapiens
GNAVQEIMIPASKAGLVIGKGGETIKQLQERAGVKMVMIQDGPQNTGADKPLRITGDPYKVQQAKEMVLALIRD [E70A] showed an abundance fitness of -0.04 ± 0.033.
GNAVQEIMIPASKAGLVIGKGGETIKALQERAGVKMVMIQDGPQNTGADKPLRITGDPYKVQQAKEMVLELIRD [Q27A] showed an abundance fitness of -0.05 ± 0.033.
In the case of GNAVQEIMIPASKAGLVIGKGGETIKRLQERAGVKMVMIQDGPQNTGADKPLRITGDPYKVQQAKEMVLELIRD [Q27R], the abundance fitness is reported as -0.011 ± 0.027.
Work on GNAVQEIMIPASKAGLVIGKGGETIKQLQERYGVKMVMIQDGPQNTGADKPLRITGDPYKVQQAKEMVLELIRD [A32Y] yielded an abundance fitness of -0.016 ± 0.051.
For GNAVQEIMIPASKAGLVIGKGGETIKQLQERAGVKMVMIQDGPQNHGADKPLRITGDPYKVQQAKEMVLELIRD [T46H], the abundance fitness was -0.055 ± 0.055.
GNAVQEIMIPASKAGLVIGKGGETIKQLQERAGVKMVMIQDGPQNTGADKPLRITGDAYKVQQAKEMVLELIRD [P58A] showed an abundance fitness of -0.012 ± 0.032.
GNAVQEIMIPASKAGLVIGKGGETIVQLQERAGVKMVMIQDGPQNTGADKPLRITGDPYKVQQAKEMVLELIRD [K26V] showed an abundance fitness of -0.157 ± 0.034.
With GNAVQEIMIPASKAGLVIGKGGETIPQLQERAGVKMVMIQDGPQNTGADKPLRITGDPYKVQQAKEMVLELIRD [K26P] the abundance fitness was -0.447 ± 0.04.
Variant GNAVQEIMIPMSKAGLVIGKGGETIKQLQERAGVKMVMIQDGPQNTGADKPLRITGDPYKVQQAKEMVLELIRD [A11M] has an abundance fitness of -0.094 ± 0.036.
Work on GNAVQEIMIPRSKAGLVIGKGGETIKQLQERAGVKMVMIQDGPQNTGADKPLRITGDPYKVQQAKEMVLELIRD [A11R] yielded an abundance fitness of -0.1 ± 0.027.
Variant GNAVQEIMIPASKAGLVIGKGGETIKQLQRRAGVKMVMIQDGPQNTGADKPLRITGDPYKVQQAKEMVLELIRD [E30R] has an abundance fitness of 0.01 ± 0.027.
In the case of GNAVQEIMIPASKAGLVIGKGIETIKQLQERAGVKMVMIQDGPQNTGADKPLRITGDPYKVQQAKEMVLELIRD [G22I], the abundance fitness is reported as -0.417 ± 0.06.
GNAVQEIMIPASKAGLVIGKGEETIKQLQERAGVKMVMIQDGPQNTGADKPLRITGDPYKVQQAKEMVLELIRD [G22E] gave an abundance fitness of -0.056 ± 0.032.
For GNAVQEIMIPASKAGLVIGSGGETIKQLQERAGVKMVMIQDGPQNTGADKPLRITGDPYKVQQAKEMVLELIRD [K20S], the abundance fitness was -0.042 ± 0.031.
In the case of GNAVQEIMIPASKAGLVIGYGGETIKQLQERAGVKMVMIQDGPQNTGADKPLRITGDPYKVQQAKEMVLELIRD [K20Y], the abundance fitness is reported as -0.023 ± 0.046.
Work on GNAVQEIMIPASKAGLVIGKGGETIKQLHERAGVKMVMIQDGPQNTGADKPLRITGDPYKVQQAKEMVLELIRD [Q29H] yielded an abundance fitness of -0.557 ± 0.062.
With GNAVQEIMIPASKAGLVIGKGGETIKQLTERAGVKMVMIQDGPQNTGADKPLRITGDPYKVQQAKEMVLELIRD [Q29T] the abundance fitness was -0.247 ± 0.038.
Variant GNAVQEIMIPASKAGLVIGKGGETIKQLQERAGVKMVMIQDGPQNTGADKPLRITGDPYKVQQAKEMVLELIAD [R73A] has an abundance fitness of 0.111 ± 0.032.
In the case of GNAVQEIMIPASKAGLVIGKGGETIKQLQERAGVKMVMIQDGPQNTGADKPLRITGDPYKVQQAKEMVLELIPD [R73P], the abundance fitness is reported as -0.208 ± 0.039.
In the case of GNAIQEIMIPASKAGLVIGKGGETIKQLQERAGVKMVMIQDGPQNTGADKPLRITGDPYKVQQAKEMVLELIRD [V4I], the abundance fitness is reported as 0.097 ± 0.042.
Variant GNAVQEIMIPASKAGLVIGKGGETIKQLQERAGVKMVMIQDPPQNTGADKPLRITGDPYKVQQAKEMVLELIRD [G42P] has an abundance fitness of -0.059 ± 0.035.
With GNAVQEIMIPASKAGLVIGKGGETIKQLQERAGVKMVMIQDCPQNTGADKPLRITGDPYKVQQAKEMVLELIRD [G42C] the abundance fitness was -0.037 ± 0.04.
Work on GNAVQEIMIPASKAGLVIGKGGETIKQLQERAGVKCVMIQDGPQNTGADKPLRITGDPYKVQQAKEMVLELIRD [M36C] yielded an abundance fitness of -0.239 ± 0.042.
Variant GNAVQEIMIPASKAGLVIGKGGETIKQLQERAGVKMVMIQDGPQNTGADKPLRITLDPYKVQQAKEMVLELIRD [G56L] has an abundance fitness of -1.28 ± 0.072.
With GNAVQEIMIPASKAGLVIGKGGETIKQLQERAGVKMVEIQDGPQNTGADKPLRITGDPYKVQQAKEMVLELIRD [M38E] the abundance fitness was -0.163 ± 0.039.
With GNAVQEIMIPASKPGLVIGKGGETIKQLQERAGVKMVMIQDGPQNTGADKPLRITGDPYKVQQAKEMVLELIRD [A14P] the abundance fitness was -0.643 ± 0.039.
GNAVQEIMIPASKAGLVIGKGGCTIKQLQERAGVKMVMIQDGPQNTGADKPLRITGDPYKVQQAKEMVLELIRD [E23C] gave an abundance fitness of -0.011 ± 0.043.
GNAVQEIMIPASKAGLVIGKGGSTIKQLQERAGVKMVMIQDGPQNTGADKPLRITGDPYKVQQAKEMVLELIRD [E23S] showed an abundance fitness of 0.043 ± 0.031.
Variant GIAVQEIMIPASKAGLVIGKGGETIKQLQERAGVKMVMIQDGPQNTGADKPLRITGDPYKVQQAKEMVLELIRD [N2I] has an abundance fitness of 0.168 ± 0.047.
Work on GNAVQEIMIPASAAGLVIGKGGETIKQLQERAGVKMVMIQDGPQNTGADKPLRITGDPYKVQQAKEMVLELIRD [K13A] yielded an abundance fitness of -0.094 ± 0.032.
GNAVQEIMIPASFAGLVIGKGGETIKQLQERAGVKMVMIQDGPQNTGADKPLRITGDPYKVQQAKEMVLELIRD [K13F] showed an abundance fitness of -0.182 ± 0.048.
With GNAVQEIMIPASLAGLVIGKGGETIKQLQERAGVKMVMIQDGPQNTGADKPLRITGDPYKVQQAKEMVLELIRD [K13L] the abundance fitness was -0.114 ± 0.03.
GNAVQEIMIPASKAGLVIGKGGESIKQLQERAGVKMVMIQDGPQNTGADKPLRITGDPYKVQQAKEMVLELIRD [T24S] showed an abundance fitness of -0.078 ± 0.031.
GNAVQEIMIPASKAGLVIGKGGENIKQLQERAGVKMVMIQDGPQNTGADKPLRITGDPYKVQQAKEMVLELIRD [T24N] showed an abundance fitness of -0.075 ± 0.058.
With GNAVQEIMHPASKAGLVIGKGGETIKQLQERAGVKMVMIQDGPQNTGADKPLRITGDPYKVQQAKEMVLELIRD [I9H] the abundance fitness was -0.905 ± 0.088.
GNAVQEIMIPAWKAGLVIGKGGETIKQLQERAGVKMVMIQDGPQNTGADKPLRITGDPYKVQQAKEMVLELIRD [S12W] gave an abundance fitness of -0.123 ± 0.034.
Variant GNAVQEIMIPASKAGLVIGKGGETIKQLQERAGVKMVMIQDGPQNTGALKPLRITGDPYKVQQAKEMVLELIRD [D49L] has an abundance fitness of -0.052 ± 0.032.
